This data set deals with the molecule itself. Briefly: cryo-EM structure.

B1: Cas2/3 (fusion of Cas2 to the Cas3 nuclease/helicase, type I-F, Pseudomonas aeruginosa PA14) (enzyme)
chain: MNILLVSQCEKRALSETRRILDQFAERRGERTWQTPITQAGLDTLRRLLKKSARRNTAVACHWIRGRDHSELLWIVGDASRFNAQGAVPTNRTCRDILRKEDENDWHSAEDIRLLTVMAALFHDIGKASQAFQAKLRNRGKPMADAYRHEWVSLRLFEAFVGPGSSDEDWLRRLADKRETGDAWLSQLARDDRQSAPPGPFQKSRLPPLAQAVGWLIVSHHRLPNGDHRGSASLARLPAPIQSQWCGARDADAKEKAACWQFPHGLPFASAHWRARTALCAQSMLERPGLLARGPALLHDSYVMHVSRLILMLADHHYSSLPADSRLGDPNFPLHANTDRDSGKLKQRLDEHLLGVALHSRKLAGTLPRLERQLPRLARHKGFTRRVEQPRFRWQDKAYDCAMACREQAMEHGFFGLNLASTGCGKTLANGRILYALADPQRGARFSIALGLRSLTLQTGQAYRERLGLGDDDLAILVGGSAARELFEKQQERLERSGSESAQELLAENSHVHFAGTLEDGPLREWLGRNSAGNRLLQAPILACTIDHLMPASESLRGGHQIAPLLRLMTSDLVLDEVDDFDIDDLPALSRLVHWAGLFGSRVLLSSATLPPALVQGLFEAYRSGREIFQRHRGAPGRATEIRCAWFDEFSSQSSAHGAVTSFSEAHATFVAQRLAKLEQLPPRRQAQLCTVHAAGEARPALCRELAGQMNTWMADLHRCHHTEHQGRRISFGLLRLANIEPLIELAQAILAQGAPEGLHVHLCVYHSRHPLLVRSAIERQLDELLKRSDDDAAALFARPTLAKALQASTERDHLFVVLASPVAEVGRDHDYDWAIVEPSSMRSIIQLAGRIRRHRSGFSGEANLYLLSRNIRSLEGQNPAFQRPGFETPDFPLDSHDLHDLLDPALLARIDASPRIVEPFPLFPRSRLVDLEHRRLRALMLADDPPSSLLGVPLWWQTPASLSGALQTSQPFRAGAKERCYALLPDEDDEERLHFSRYEEGTWSNQDNLLRNLDLTYGPRIQTWGTVNYREELVAMAGREDLDLRQCAMRYGEVRLRENTQGWSYHPYLGFKKYN
Regarding B1, the binding result is “binds”.

B2: Cas1 (type I-F, Pseudomonas aeruginosa PA14) (enzyme)
chain: MDDISPSELKTILHSKRANLYYLQHCRVLVNGGRVEYVTDEGRHSHYWNIPIANTTSLLLGTGTSITQAAMRELARAGVLVGFCGGGGTPLFSANEVDVEVSWLTPQSEYRPTEYLQRWVGFWFDEEKRLVAARHFQRARLERIRHSWLEDRVLRDAGFAVDATALAVAVEDSARALEQAPNHEHLLTEEARLSKRLFKLAAQATRYGEFVRAKRGSGGDPANRFLDHGNYLAYGLAATATWVLGIPHGLAVLHGKTRRGGLVFDVADLIKDSLILPQAFLSAMRGDEEQDFRQACLDNLSRAQALDFMIDTLKDVAQRSTVSA
As for B2, the binding result is recorded as “binds”.

For the origin of these results see paper doi:10.1101/2023.05.26.542337 (bioRxiv, 2023).
